Drawing on publication PMC7057950, this text covers response (normalized dc/dt) and Kd for five substances.

The target in assay [1] is ligand binding domain of the glucocorticoid receptor, Atto488-labelled (GR-LBDm-Atto 488). Kind of assay: analytical ultracentrifugation. The settings on record: parent: est. 0.77; read off a plot.
For assay [2], the target named is yHsp90 (Saccharomyces cerevisiae) (UniProt P02829). The settings on record: remark: other sources report otherwise.

Turning to “human Hsp90β, wild type (from UniProt P08238) K607A”, the response (normalized dc/dt) in assay [1] amounted to 0.58.

With yHsp90, P02829, the Kd in assay [2] came out at 45 nM. In other words, the double-digit nanomolar range.

Turning to “human Hsp90β, wild type (from UniProt P08238) K607E”, the response (normalized dc/dt) in assay [1] came out at 0.37.

As for “human Hsp90β, wild type (from UniProt P08238) K607I”, the response (normalized dc/dt) in assay [1] turned out to be 0.71.

As to “human Hsp90β, wild type (from UniProt P08238) K607R”, the response (normalized dc/dt) in assay [1] was determined as 0.82.

The Kd is a measure of binding affinity in units of concentration. High values mean lower affinity, low ones higher affinity.
